Laboratory results: patent US20240209382A1 (PURDUE RESEARCH FOUNDATION, published 2024)
Residue numbers refer to the chain shown, from its start. Names and notes keep the numbering of the source.

B1: wild-type Barley stripe mosaic virus coat protein (BSMV-CP) (other)
chain: MPNVSLTAKGGGHYIEDQWDTQVVEAGVFDDWWVHVEAWNKFLDNLRGINFSVASSRSQVAEYLAALDRDLPADVDRRFAGARGQIGSPNYLPAPKFFRLDKRTIAELTRLSRLTDQPHNNRDIELNRAKRATTNPSPPAQAPSENLTLRDVQPLKDSALHYQYVLIDLQSARLPVYTRKTFERELALEWIIPDAEEA
notes: Capsid subunit expressed in E. coli; many copies assemble into disks or rod-shaped VLPs; Rods of the wild type were obtained from the transcript carrying the TMV origin of assembly (RNA); also called BSMV capsid protein; wildtype BSMV VLPs
B2: BSMV-CP having a point mutation at residue D101R (other)
chain: B1 chain with D101R
notes: Capsid subunit expressed in E. coli; self-assembles into rod-shaped VLPs; also called BSMV-D101R; BSMV-D101R VLPs
B3: BSMV-CP having point mutations at both residues E62Q and D101N (other)
chain: B1 chain with E62Q, D101N
notes: Capsid subunit expressed in E. coli; self-assembles into rod-shaped VLPs; also called E62Q/D101N; BSMV-CP-E62Q/D101N
B4: BSMV-CP having a point mutation at residue E62Q (other)
chain: B1 chain with E62Q
notes: Capsid subunit expressed in E. coli; self-assembles into rod-shaped VLPs; also called BSMV-CP-E62Q
B5: BSMV-CP having a point mutation at residue D101N (other)
chain: B1 chain with D101N
notes: Capsid subunit expressed in E. coli; self-assembles into rod-shaped VLPs; also called BSMV-CP-D101N

How the values were obtained:
[1] = biological target: the molecule itself; experiment: TEM of capsid self-assembly, E. coli, transcript with TMV OAS (only disks without OAS)
[2] = biological target: the molecule itself; experiment: TEM of capsid self-assembly

| Protein | binding result [1] | binding result [2] |
| --- | --- | --- |
| B1 | binds | – |
| B2 | – | binds |
| B3 | – | binds |
| B4 | – | binds |
| B5 | – | binds |
